Values quoted from earlier work, collected in paper PMC12525431, “Hsp70 Peptides Induce TREM-1-Dependent and TREM-1-Independent Activation of Cytotoxic Lymphocytes” (International Journal of Molecular Sciences, 2025).

Target: T1, TREM-1 (Homo sapiens, UniProt Q9NP99)
T1 construct: causes dissociation of the TREM-1 exocellular domain; made in house
Details: ref [30],[31],[32],[33]

T1 sequence (Q9NP99 21-205 limits assumed): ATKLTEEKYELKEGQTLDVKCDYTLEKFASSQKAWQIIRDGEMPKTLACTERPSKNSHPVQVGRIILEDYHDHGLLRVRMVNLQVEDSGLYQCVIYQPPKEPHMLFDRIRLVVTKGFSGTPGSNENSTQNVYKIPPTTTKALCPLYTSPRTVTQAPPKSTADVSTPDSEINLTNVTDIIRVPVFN

- TREM-1 ligand: TREM-1 ligands
B1: eCIRP: RNA-binding protein (eCIRP), TREM-1 ligand (protein, UniProt Q14011 1-172, looked up)
Cold-inducible RNA-binding …: MASDEGKLFVGGLSFDTNEQSLEQVFSKYGQISEVVVVKDRETQRSRGFGFVTFENIDDAKDAMMAMNGKSVDGRQIRVDQAGKSSDNRSRGYRGGSAGGRGFFRGGRGRGRGFSRGGGDRGYGGNRFESRSGGYGGSRDYYSSRSQSGGYSDRSSGGSYRDSYDSYATHNE
